Changes are numbered by the printed parent chain. Entries after “also recorded” stand apart in the source; their conditions may differ.
How the values were obtained:
[1] = tested on: immunocomplex of CCPH variant and biotinylated anti-Adda mAb; experiment: Single-step non-competitive TR-IFMA with SA51D1 scFv-AP, toxin standards; type: binding
[2] = tested on: anti-Adda mAb-MC-LR immunocomplex; type: binding
[3] = tested on: immunocomplex of CCPH variant and biotinylated anti-Adda mAb; experiment: Quantitative lateral flow test with streptavidin up-converting nanoparticles; type: binding; conditions: for Recognition of nine CCPH variants in lateral flow test: each CCPH at 1 μg/l
[4] = tested on: immunocomplex formed by anti-Adda Mab and MC-LR; experiment: BioLayer Interferometry (Octet), binding to immunocomplex; conditions: SA51D1 1 μg/ml
Method: (§1) Binding of SA51D1 was explored using Octet RED384 instrument (Pall ForteBio). Three measurements (A, B and C) were performed in duplicates using tilted-bottom 384-well microplates (ForteBio) with 1000 rpm agitation at 30° C. Colorless Assay Buffer (Kaivogen) [0.05 M Tris-HCl, pH 7.75, 0.9% (w/v) NaCl, 0.05% (w/v) NaN3, 0.01% (v/v) Tween 40, 0.05% (w/v) bovine-γ-globulin, 20 μM diethylenetriaminepentaacetate (DTPA), and 0.5% (w/v) bovine serum albumin (BSA)] was used.
(§2) Biotinylated ADDA Mab AD4G2 (1 μg/ml) was immobilized on Streptavidin biosensor (Dip and Read SA Biosensors, ForteBio) for 200 sec. In order to form IC, another loading was performed with MC-LR (1 μg/ml) for 200 sec. In blank measurement (C) only buffer was used instead of MC-LR. All sensors were incubated in buffer for 60 sec.

[5] = tested on: anti-Adda mAb without MC-LR; experiment: BioLayer Interferometry (Octet), binding to naked primary antibody; conditions: SA51D1 1 μg/ml; no MC-LR
Method: as §1, §2

[6] = BioLayer Interferometry (Octet), pre-incubation with free toxin; type: binding; conditions: pre-incubated with 500 μg/L MC-LR
Method: as §1, §2

[7] = tested on: biotinylated anti-Adda Mab, no CCPH; experiment: TR-IFMA background signal without CCPH; type: binding
Method: (§3) By way of example, the specificity of SA51D1 to the immune complex was also seen in our immunoassay, where streptavidin-coated 96-well microtiter wells were used to capture a complex formed by biotinylated anti-Adda Mab, CCPH, SA51D1 antibody fused to alkaline phosphatase and this complex was detected with europium-labelled anti-alkaline phosphatase Pab. […] With 10 μg/l level of MC-LR the fluorescence signal was 789966 counts.

[8] = tested on: complex of biotinylated anti-Adda Mab and MC-LR; experiment: TR-IFMA signal with MC-LR; type: binding; conditions: 10 μg/l MC-LR
Method: as §3

[9] = tested on: immunocomplexes of CCPH variants and anti-Adda mAb; experiment: Screening and cross-reactivity studies of anti-IC scFv-AP binders, specificity class; type: binding
[10] = tested on: immunocomplexes of MC-XZ and Nod-R with anti-Adda mAb; experiment: Cross-reactivity profile of anti-IC binders by single-step non-competitive assay (FIG. 5); type: binding; conditions: toxin 0.1 to 60 μg/L
[11] = tested on: CCPH in unknown water samples, immunocomplex with anti-Adda mAb; experiment: Anti-IC immunoassay profiling of blinded water samples (Abraxis proficiency testing); type: binding; conditions: sample MC-TK8, MC-LR + MC-RR + MC-YR, 4 + 1 + 1 μg/l

MC-LA
Sensitivity [1]: 0.05 µg/L

MC-LR
Sensitivity (blank+3SD) [2]: below 0.3 μg/L

C/C=C1/C(=O)N[C@@H](C(=O)O)[C@H](C)C(=O)N[C@@H](CCCNC(=N)N)C(=O)N[C@@H](/C=C/C(C)=C/[C@H](C)[C@H](Cc2ccccc2)OC)[C@H](C)C(=O)N[C@@H](C(=O)O)CCC(=O)N1C [Nodularin, reference compound]
Signal-to-background ratio [3]: 38

B1: SA51D1: group-specific (generic) anti-immunocomplex scFv from synthetic phage display library (antibody, V domains shown)
VH: EVQLLESGGGLVQPGGSLRLSCAASGFTFSNYSMHWVRQAPGKGLEWVSEITPYDGNTDYADSVKGRFTISRDNSKNTLYLQMNSLRAEDTAVYYCAREWWSSNWIYLDYWGQGTLVTVSS
VL: EIVLTQSPGTLSLSPGERATLSCRASQSVSSSNLAWYQQKPGQAPRLLIYGASSRATGVPDRFSGSGSGTDFTLTISRLEPEDFAVYYCQQMHSTPWTFGQGTKVEIKRT
modifications: Clone SA51D1; DOMAIN (31)..(35) CDR1; DOMAIN (50)..(66) CDR2; DOMAIN (99)..(110) CDR3; DOMAIN (24)..(35) CDR1; DOMAIN (51)..(57) CDR2; DOMAIN (90)..(98) CDR3
Recognition of nine CCPH variants in lateral flow test [3]: recognizes all CCPH variants tested | Binding to immunocomplex [4]: binds specifically | Binding to anti-Adda mAb alone [5]: no interaction; also recorded: neglegtable binding | Affinity towards free MC-LR [6]: does not have affinity; also recorded: no affinity | Background fluorescence signal level [7]: 404 counts | Fluorescence signal [8]: 789966 counts | Specificity of anti-IC antibody (CCPH immunocomplexes recognized) [9]: group-specific; also recorded: broad-specific

B2: SA56B8: variant-specific anti-IC antibody, MC-LR (antibody, V domains shown)
VH: EVQLLESGGGLVQPGGSLRLSCAASGFTFSDYWMHWVRQAPGKGLEWVSYINPYGGYTDYADSVKGRFTISRDNSKNTLYLQMNSLRAEDTAVYYCARYVRRHFDYWGQGTLVTVSS
VL: B1 VL with N33Y, M92S, H93S, T95Y
modifications: Clone SA56B8; DOMAIN (31)..(35) CDR1; DOMAIN (50)..(66) CDR2; DOMAIN (99)..(106) CDR3; DOMAIN (24)..(35) CDR1; DOMAIN (51)..(57) CDR2; DOMAIN (90)..(98) CDR3
Signal (%) with MC-LW ([10]; MC-LW): below 20% | Specificity (cross-reactive pattern) [10]: MC-LR and MC-dmLR specific | Specificity of anti-IC antibody (CCPH immunocomplexes recognized) [9]: recognize immunocomplexes comprising MC-LR; also recorded: MC-LR specific

B3: SA32C11: variant-specific anti-IC antibody, Nod-R (antibody, V domains shown)
VH: EVQLLESGGGLVQPGGSLRLSCAASGFTFSDYWMHWVRQAPGKGLEWVSEINTSNGNTYYADSVKGRFTISRDNSKNTLYLQMNSLRAEDTAVYYCARESWWPYSFDYWGQGTLVTVSS
VL: B1 VL with M92S, H93S, T95L
modifications: Clone SA32C11; DOMAIN (31)..(35) CDR1; DOMAIN (50)..(66) CDR2; DOMAIN (99)..(108) CDR3; DOMAIN (24)..(35) CDR1; DOMAIN (51)..(57) CDR2; DOMAIN (90)..(98) CDR3
Specificity (cross-reactive pattern) [10]: specificity only towards Nod-R | Recognition of nine CCPH variants in lateral flow test [3]: Only Nodularin was recognized | Specific anti-IC assay result ([11]; listed as Nod5): not | Specificity of anti-IC antibody (CCPH immunocomplexes recognized) [9]: recognize immunocomplexes comprising Nod-R; also recorded: nodularin-R specific

B4: SA41B5: variant-specific anti-IC antibody, MC-RR (antibody, V domains shown)
VH: EVQLLESGGGLVQPGGSLRLSCAASGFTFSSDVMHWVRQAPGKGLEWVSVINPYDGSTYYADSVKGRFTISRDNSKNTLYLQMNSLRAEDTAVYYCARAVAGQGGYFDYWGQGTLVTVSS
VL: B1 VL with M92S, H93S, T95L
modifications: Clone SA41B5; DOMAIN (31)..(35) CDR1; DOMAIN (50)..(66) CDR2; DOMAIN (99)..(109) CDR3; DOMAIN (24)..(35) CDR1; DOMAIN (51)..(57) CDR2; DOMAIN (90)..(98) CDR3
Specific anti-IC assay result [11]: positive | Specificity of anti-IC antibody (CCPH immunocomplexes recognized) [9]: recognize immunocomplexes comprising MC-RR; also recorded: MC-RR specific

B5: SA58A12: XR subgroup-specific anti-IC antibody (antibody, V domains shown)
VH: EVQLLESGGGLVQPGGSLRLSCAASGFTFSNYGMHWVRQAPGKGLEWVSEIWPNNGTTNYADSVKGRFTISRDNSKNTLYLQMNSLRAEDTAVYYCARESGQWWYGVFDYWGQGTLVTVSS
VL: B1 VL with M92S, H93S, T95Y
modifications: Clone SA58A12; DOMAIN (31)..(35) CDR1; DOMAIN (50)..(65) CDR2; DOMAIN (98)..(110) CDR3; DOMAIN (24)..(35) CDR1; DOMAIN (51)..(57) CDR2; DOMAIN (90)..(98) CDR3
Specificity (cross-reactive pattern) [10]: specific towards MC-XZ where Z=R (Arg) and also towards Nod-R | Specificity of anti-IC antibody (CCPH immunocomplexes recognized) [9]: specific for a subgroup XR

Source: patent US10808024B2, “Antibodies against immunocomplexes comprising cyanobacterial cyclic peptide hepatotoxins” (priority 2015, dated 2020)
